Key:
[1] = molecular target: T1, CD28 (Homo sapiens, UniProt P10747); assay: Jurkat/IL2 + K562/OKT3/PD-L1 reporter assay; format: cell-based; parameters: host or cells: Jurkat cells expressing an IL-2-luciferase reporter; conditions: Table E8; K562/OKT3/PD-L1 aAPC; 50 nM
[2] = molecular target: T1, CD28; assay: Flow binding to Jurkat/IL2 reporter cells (CD28); parameters: host or cells: Jurkat cells expressing an IL-2-luciferase reporter; conditions: Table E4; 33.3 nM; Jurkat cells (CD28)
Summary of the method: (§1)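 Cells were first blocked in PBS with 1% BSA and 0.1% sodium azide. Primary staining with fusion protein ran 45 min on ice, and secondary staining with PE anti-human Fc at 1:150 ran 30 min on ice.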

[3] = molecular target: huCTLA4 (Homo sapiens, UniProt P16410); assay: Flow binding to CHO cells stably expressing CTLA4; parameters: huCTLA4 and huPD-L1, full-length mammalian surface expression constructs were generated; expressed in transfected cells; host or cells: CHO cells, lentiviral transduction, sorted to >98% purity; conditions: Table E4; 33.3 nM variant CD80 IgV-Fc; CHO cells stably expressing CTLA4
Summary of the method: as §1

[4] = molecular target: huPD-L1 (Homo sapiens, UniProt Q9NZQ7); assay: Flow binding to CHO cells stably expressing PD-L1; parameters: huCTLA4 and huPD-L1, full-length mammalian surface expression constructs were generated; expressed in transfected cells; host or cells: CHO cells, lentiviral transduction, sorted to >98% purity; conditions: Table E4; 33.3 nM; CHO cells stably expressing PD-L1
Summary of the method: as §1

huCTLA4, sequence (P16410 36-223): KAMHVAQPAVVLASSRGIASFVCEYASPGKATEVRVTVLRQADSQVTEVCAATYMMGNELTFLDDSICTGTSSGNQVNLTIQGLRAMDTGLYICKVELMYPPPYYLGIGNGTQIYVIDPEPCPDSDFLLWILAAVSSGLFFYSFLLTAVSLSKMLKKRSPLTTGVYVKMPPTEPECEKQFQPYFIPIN
huPD-L1, sequence (Q9NZQ7 19-290): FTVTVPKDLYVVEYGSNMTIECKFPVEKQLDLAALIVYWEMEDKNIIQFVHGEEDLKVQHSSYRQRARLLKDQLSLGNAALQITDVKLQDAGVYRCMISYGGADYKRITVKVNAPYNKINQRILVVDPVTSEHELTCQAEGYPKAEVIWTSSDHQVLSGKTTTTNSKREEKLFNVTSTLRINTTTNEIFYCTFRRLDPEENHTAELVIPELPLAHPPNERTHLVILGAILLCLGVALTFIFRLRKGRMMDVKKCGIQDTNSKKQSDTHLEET

Molecule	Relative Luciferase Units (RLU), CD80-Fe Cone 50 nM [1]	Fold Increase over WT CD80-IgV-Fe [1]	CD28 MFI at 33.3 nM [2]	CTLA4 MFI at 33.3 nM [3]	PD-L1 MFI at 33.3 nM [4]
V22D/E35D/M47L/L70M/L97Q (protein, CD80 v283 ECD) VIHVTKEVKEVATLSCGHNVSDEELAQTRIYWQKDKKMVLTMMSGDLNIWPEYKNRTIFDITNNLSIVIMALRPSDEGTYECVVLKYEKDAFKREHQAEVTLSVKADFPTPSISDFETPTSNIRRIICSTSGGFPEPHLSWLENGEELNAINTTVSQDPETELYAVSSKLDFNMTTNHSFMCLIKYGHLRVNQTFNWNTTKQEHFPDN	1542 RLU	–	–	–	–
T28Y/Q33H/E35D/D46V/M47I/A71G (protein, CD80 v291 ECD) VIHVTKEVKEVATLSCGHNVSVEELAQYRIYWHKDKKMVLTMMSGVINIWPEYKNRTIFDITNNLSIVILGLRPSDEGTYECVVLKYEKDAFKREHLAEVTLSVKADFPTPSISDFETPTSNIRRIICSTSGGFPEPHLSWLENGEELNAINTTVSQDPETELYAVSSKLDFNMTTNHSFMCLIKYGHLRVNQTFNWNTTKQEHFPDN	580 RLU	2.8	–	–	–
E35D/M47L/A71G/L85Q (protein, UniProt P33681 35-288, looked up, variant E35D M47L A71G L85Q) T-lymphocyte activation …: VIHVTKEVKEVATLSCGHNVSVEELAQTRIYWQKDKKMVLTMMSGDLNIWPEYKNRTIFDITNNLSIVILGLRPSDEGTYECVVQKYEKDAFKREHLAEVTLSVKADFPTPSISDFEIPTSNIRRIICSTSGGFPEPHLSWLENGEELNAINTTVSQDPETELYAVSSKLDFNMTTNHSFMCLIKYGHLRVNQTFNWNTTKQEHFPDNLLPSWAITLISVNGIFVICCLTYCFAPRCRERRRNERLRRESVRPV	1256 RLU	–	1436	–	–
E35D/T41S/M43I/M47L/A71G (protein, UniProt P33681 35-288, looked up, variant E35D T41S M43I M47L A71G) T-lymphocyte activation …: VIHVTKEVKEVATLSCGHNVSVEELAQTRIYWQKDKKMVLSMISGDLNIWPEYKNRTIFDITNNLSIVILGLRPSDEGTYECVVLKYEKDAFKREHLAEVTLSVKADFPTPSISDFEIPTSNIRRIICSTSGGFPEPHLSWLENGEELNAINTTVSQDPETELYAVSSKLDFNMTTNHSFMCLIKYGHLRVNQTFNWNTTKQEHFPDNLLPSWAITLISVNGIFVICCLTYCFAPRCRERRRNERLRRESVRPV	1535 RLU	–	–	209034	–
E35D/M38T/M43V/M47V/N48R/L85Q (protein, UniProt P33681 35-288, looked up, variant E35D M38T M43V M47V N48R L85Q, Fc fusion) T-lymphocyte activation …: VIHVTKEVKEVATLSCGHNVSVEELAQTRIYWQKDKKTVLTMVSGDVRIWPEYKNRTIFDITNNLSIVILALRPSDEGTYECVVQKYEKDAFKREHLAEVTLSVKADFPTPSISDFEIPTSNIRRIICSTSGGFPEPHLSWLENGEELNAINTTVSQDPETELYAVSSKLDFNMTTNHSFMCLIKYGHLRVNQTFNWNTTKQEHFPDNLLPSWAITLISVNGIFVICCLTYCFAPRCRERRRNERLRRESVRPV	680 RLU	3.3	–	–	–
I30V/E35D/M47V/A71G/A91V (protein, UniProt P33681 35-288, looked up, variant I30V E35D M47V A71G A91V) T-lymphocyte activation …: VIHVTKEVKEVATLSCGHNVSVEELAQTRVYWQKDKKMVLTMMSGDVNIWPEYKNRTIFDITNNLSIVILGLRPSDEGTYECVVLKYEKDVFKREHLAEVTLSVKADFPTPSISDFEIPTSNIRRIICSTSGGFPEPHLSWLENGEELNAINTTVSQDPETELYAVSSKLDFNMTTNHSFMCLIKYGHLRVNQTFNWNTTKQEHFPDNLLPSWAITLISVNGIFVICCLTYCFAPRCRERRRNERLRRESVRPV	1503 RLU	–	–	204756	–
E35D/L85Q/K93T/E95V/L97Q (protein, UniProt P33681 35-288, looked up, variant E35D L85Q K93T E95V L97Q) T-lymphocyte activation …: VIHVTKEVKEVATLSCGHNVSVEELAQTRIYWQKDKKMVLTMMSGDMNIWPEYKNRTIFDITNNLSIVILALRPSDEGTYECVVQKYEKDAFTRVHQAEVTLSVKADFPTPSISDFEIPTSNIRRIICSTSGGFPEPHLSWLENGEELNAINTTVSQDPETELYAVSSKLDFNMTTNHSFMCLIKYGHLRVNQTFNWNTTKQEHFPDNLLPSWAITLISVNGIFVICCLTYCFAPRCRERRRNERLRRESVRPV	315 RLU	1.5	–	–	–
E35D/A71G (protein, UniProt P33681 35-288, looked up, variant E35D A71G) T-lymphocyte activation …: VIHVTKEVKEVATLSCGHNVSVEELAQTRIYWQKDKKMVLTMMSGDMNIWPEYKNRTIFDITNNLSIVILGLRPSDEGTYECVVLKYEKDAFKREHLAEVTLSVKADFPTPSISDFEIPTSNIRRIICSTSGGFPEPHLSWLENGEELNAINTTVSQDPETELYAVSSKLDFNMTTNHSFMCLIKYGHLRVNQTFNWNTTKQEHFPDNLLPSWAITLISVNGIFVICCLTYCFAPRCRERRRNERLRRESVRPV	1190 RLU	–	–	184204	34149

Other lines, results leading:

Relative Luciferase Units (RLU), CD80-Fe Cone 50 nM [1]	Fold Increase over WT CD80-IgV-Fe [1]	CD28 MFI at 33.3 nM [2]	CTLA4 MFI at 33.3 nM [3]	PD-L1 MFI at 33.3 nM [4]	Molecule
215 RLU	–	–	2680	–	Q33R/E35D/M47V/N48K/L85M/F92L (protein, UniProt P33681 35-288, looked up, variant Q33R E35D M47V N48K L85M F92L, Fc fusion) T-lymphocyte activation …: VIHVTKEVKEVATLSCGHNVSVEELAQTRIYWRKDKKMVLTMMSGDVKIWPEYKNRTIFDITNNLSIVILALRPSDEGTYECVVMKYEKDALKREHLAEVTLSVKADFPTPSISDFEIPTSNIRRIICSTSGGFPEPHLSWLENGEELNAINTTVSQDPETELYAVSSKLDFNMTTNHSFMCLIKYGHLRVNQTFNWNTTKQEHFPDNLLPSWAITLISVNGIFVICCLTYCFAPRCRERRRNERLRRESVRPV
282 RLU	–	–	–	–	E35D/A71D/L72V/R73H/E81K (protein, UniProt P33681 35-288, looked up, variant E35D A71D L72V R73H E81K) T-lymphocyte activation …: VIHVTKEVKEVATLSCGHNVSVEELAQTRIYWQKDKKMVLTMMSGDMNIWPEYKNRTIFDITNNLSIVILDVHPSDEGTYKCVVLKYEKDAFKREHLAEVTLSVKADFPTPSISDFEIPTSNIRRIICSTSGGFPEPHLSWLENGEELNAINTTVSQDPETELYAVSSKLDFNMTTNHSFMCLIKYGHLRVNQTFNWNTTKQEHFPDNLLPSWAITLISVNGIFVICCLTYCFAPRCRERRRNERLRRESVRPV
1094 RLU	–	–	278391	19250	E35D/M43I/M47V/K89N (protein, UniProt P33681 35-288, looked up, variant E35D M43I M47V K89N) T-lymphocyte activation …: VIHVTKEVKEVATLSCGHNVSVEELAQTRIYWQKDKKMVLTMISGDVNIWPEYKNRTIFDITNNLSIVILALRPSDEGTYECVVLKYENDAFKREHLAEVTLSVKADFPTPSISDFEIPTSNIRRIICSTSGGFPEPHLSWLENGEELNAINTTVSQDPETELYAVSSKLDFNMTTNHSFMCLIKYGHLRVNQTFNWNTTKQEHFPDNLLPSWAITLISVNGIFVICCLTYCFAPRCRERRRNERLRRESVRPV
1315 RLU	–	–	–	–	E35D/M38T/D46E/M47V/N48S (protein, UniProt P33681 35-288, looked up, variant E35D M38T D46E M47V N48S) T-lymphocyte activation …: VIHVTKEVKEVATLSCGHNVSVEELAQTRIYWQKDKKTVLTMMSGEVSIWPEYKNRTIFDITNNLSIVILALRPSDEGTYECVVLKYEKDAFKREHLAEVTLSVKADFPTPSISDFEIPTSNIRRIICSTSGGFPEPHLSWLENGEELNAINTTVSQDPETELYAVSSKLDFNMTTNHSFMCLIKYGHLRVNQTFNWNTTKQEHFPDNLLPSWAITLISVNGIFVICCLTYCFAPRCRERRRNERLRRESVRPV
